Assay results: patent US20240425848

Molecular target: histone H3 trimethylated at lysine 9 (H3K9me3) in native chromatin of Caki-1 cells, P68431

B1: Tn5 (protein)
chain: MITSALHRAADWAKSVFSSAALGDPRRTARLVNVAAQLAKYSGKSITISSEGSKAMQEGAYRFIRNPNVSAEAIRKAGAMQTVKLAQEFPELLAIEDTTSLSYRHQVAEELGKLGSIQDKSRGWWVHSVLLLEATTFRTVGLLHQEWWMRPDDPADADEKESGKWLAAAATSRLRMGSMMSNVIAVCDREADIHAYLQDKLAHNERFVVRSKHPRKDVESGLYLYDHLKNQPELGGYQISIPQKGVVDKRGKRKNRPARKASLSLRSGRITLKQGNITLNAVLAEEINPPKGETPLKWLLLTSEPVESLAQALRVIDIYTHRWRIEEFHKAWKTGAGAERQRMEEPDNLERMVSILSFVAVRLLQLRESFTPPQALRAQGLLKEAEHVESQSAETVLTPDECQLLGYLDKGKRKRKEKAGSLQWAYMAIARLGGFMDSKRTGIASWGALWEGWEALQSKLDGFLAAKDLMAQGIKI
Ec: global enrichment of the ATAC-seq tagmentation signal over H3K9me3-marked regions, log2(ratio) over genomic Input, Caki-1; subscript printed as 0, first E line of the box: E0= -5.07 | Ec: global enrichment of the ATAC-seq tagmentation signal over H3K9me3-marked regions, log2(ratio) over genomic Input, Caki-1 [Continued) e]: Ec= -5.07 | Mc: modal enrichment of the ATAC-seq tagmentation signal over H3K9me3-marked regions, log2(ratio) over genomic Input, Caki-1; subscript printed as 0, first M line of the box, agrees with the mode of t: M0= -2.19 | Mc: modal enrichment of the ATAC-seq tagmentation signal over H3K9me3-marked regions, log2(ratio) over genomic Input, Caki-1 [Continued) e]: Mc= -2.19 | stated: no tagmentation signal over H3K9me3 ChIP-seq domains (ATAC-seq on permeabilized Caki-1 nuclei): Tn5 track (scale 0-140.7): near zero over the H3K9me3 domains at about 42.4-43.4 and 43.8-44.6 Mbp of Chr. 19; peaks only where the H3K4me3 track has peaks | stated: no tagmentation signal over H3K9me3 ChIP-seq domains (ATAC-seq, Caki-1): Tn5 track (scale 0-50): clusters of sharp peaks at the positions of the H3K4me3 peaks; near zero at about 59-62 Mbp of Chr.12, where the H3K9me3 and TnH tracks are raised | stated: no tagmentation signal over H3K9me3 ChIP-seq domains (bulk ATAC-seq with Tn5 alone and scGET-seq pseudo-bulk, Caki-1) [Continued) g]: tn5 and tn5 pseudobulk tracks (scale 0-50 each): flat near 0 at about 33.5-34.7 Mbp and near 0 inside the H3K9me3 domains at about 36.6-37.4 and 38.2-38.9 Mbp of chr1; sharp peaks at the positions of the H3K4me3 peaks
